The target in assay [1] is T1, IkBa peptide [SEQ ID No. 1] (Homo sapiens, UniProt P25963).
T1 construct: two phosphoserines in the DSGLDS motif (chemical modification); purchased New England Peptide, Fitchburg Mass; host or cells: chemical synthesis
The assay is described as follows: Phosphopeptide binding assay, peptide-BSA coated IPR plate. From the text: A phosphopeptide derived from the IkBa degradation motif (SEQ ID NO: 1) and a phosphopeptide derived from c-Myc (SEQ ID NO: 4) were chemically synthesized (New England Peptide, Fitchburg Mass.) with the following sequences respectively:
A maleimide pre-activated BSA (Pierce, Pittsburgh Pa.), which contains estimated 17 active maleimide groups on the protein surface, was used as the protein carrier, and was supplied as a lyophilized preparation. Coupling of the IkBa peptide (SEQ ID NO: 1) to the pre-activated BSA was carried out with 2 mg BSA (30 nmol) and 17 equivalents of the 25 residue phosphopeptide in 400 μl PBS. The reaction was terminated with 2 mM […] after incubation at room temperature for 30 minutes. The peptide:BSA conjugate was then purified on PD-10 gel filtration column to remove uncoupled peptide and analyzed with SDS PAGE to monitor the coupling reaction. […] After coupling and purification, the column fractions containing the peptide:BSA conjugates were pooled and the protein concentration of the pooled samples was determined by BCA assay (Pierce, Pittsburgh Pa.). NaN3, (0.02%) was added to the final peptide:BSA conjugate sample for long term storage at 4° C. […]
Two βTRCP genes, βTRCP1 and βTRCP2, are present in the human genome on chromosome 5 and 10, respectively. […] The ECL signals were measured using an imaging plate reader (IPR).

Assay [2] has as its target T2, EGFR-pY1148 (SEQ ID NO: 9) (Homo sapiens, UniProt P00533).
T2 construct: phosphotyrosine at Tyr1148 (chemical modification); purchased New England Peptide, Fitchburg Mass; host or cells: chemical synthesis
Description: Single-well 4-spot assay for multiple peptide-protein interactions. The assay is classed as binding. As to conditions: 4-spot plate. From the text:
(§1) Four phosphopeptides and their cognate binding proteins (Table 14) were selected for an integrated assay of multiple peptide-protein interaction in 4-spot Multi-Array plates. The IkBa-24pp peptide and its binding protein, βTRCP, are described in Example 10. […] These phosphotyrosine containing peptides are recognized by different adaptor or effecter proteins of the receptor tyrosine kinase signaling pathway.
(§2) These four peptides were coupled to BSA carrier protein through cystine residue. After purification on PD-10 gel filtration columns, the peptide-BSA conjugates were then deposited on the assay domains of a 4-spot multi-array IPR plate (i.e., in one of the four exposed regions of working electrode defined by the dielectric layer) with an automated micro-dispensing system (Bio-Dot Dispenser, Bio-Dot, Irvine Calif.). […] These plates are dried then used or stored under desiccated conditions. A few hours prior to usage the plates were rehydrated and blocked with 3% BSA in PBS. […] The in vitro translated and biotin-labeled proteins were then assayed in the 4-spot multi-array IPR plates under conditions described in Example 10.

The target of assay [3] is T3, EGFR-pY1068 (SEQ ID NO: 7) (Homo sapiens, UniProt P00533).
T3 construct: phosphotyrosine at Tyr1068 (chemical modification); purchased New England Peptide, Fitchburg Mass; host or cells: chemical synthesis
The description is as above. It counts as binding. The settings on record: 4-spot plate.
From the text: as §1, §2

Assay [4] concerns pooled phosphopeptide:BSA conjugates (Pools A-D). The assay is described as follows: Coded multiplex phosphopeptide binding assay with pooled peptide:BSA conjugates on 4 spots. The settings on record: for ECL signal, spot A: Pool A, EGFR-pTyr1148, IkBa-24ppC, Myc-p58Tp62S; for ECL signal, spot B: Pool B, EGFR-pTyr992, EGFR-pTyr1148, Smad3C; for ECL signal, spot C: Pool C, EGFR-pTyr1068, IkBa-24ppC, Smad3C; for ECL signal, spot D: Pool D, EGFR-pTyr992, EGFR-pTyr1068, Myc-p58Tp62S. From the text: To prepare the Multi-Spot IPR plates, in this example we made use of pools of the peptide:BSA conjugates to coat each of 4 spots per well in a 96 well plate. To achieve this we made the following pools; • Pool A; EGFR-pTyr1148, IkBa-24ppC, Myc-p58Tp62S. • Pool B; EGFR-pTyr992, EGFR-pTyr1148, Smad3C. • Pool C; EGFR-pTyr1068, IkBa-24ppC, Smad3C. • Pool D; EGFR-pTyr992, EGFR-pTyr1068, Myc-p58Tp62S.
This combination of the various peptides results in any single peptide being present in two pools. Each of these four pools is then spotted on to a unique spot in a 4 spot array. In this way any single binding protein with specificity for only one of the peptides would bind to two spots; the identity of the two spots would allow the identification of the peptide involved in the binding reaction.
Typically approximately 120 fmole of peptide:BSA conjugate in 0.25 μl was deposited on each spot of a 4-spot multi-array IPR plates using a BioDot Dispenser (Bio-Dot Inc., vIrvine Calif.). At this stage, the plates were dried then used or stored under desiccated condition. A few hours prior to usage, the plates were rehydrated and blocked with 3% BSA, in PBS.
To test the system the following EST clones IMAGE # 3491843, 4237375, 4398016, 4419252, 3872466, 3907115 were obtained. These clones express the following genes βTRCP1, βTRCP2, Grb2, PLCγ, CBP and Shc1, respectively. […] These DNAs were used to produce proteins as described in the Materials and Methods. Proteins were transferred to a well of the 4 spot peptide-coated and BSA blocked ECL plates. The binding assay (using Sulfo-TAG labeled streptavidin as a detection agent) was carried our according to the procedures described in Example 11.

In assay [5] the target is T4, EGFR-pY992 (SEQ ID NO: 5) (Homo sapiens, UniProt P00533).
T4 construct: phosphotyrosine at Tyr992 (chemical modification); purchased New England Peptide, Fitchburg Mass; host or cells: chemical synthesis
The assay is described as follows: Single-well 4-spot assay for multiple peptide-protein interactions. It counts as binding. As to conditions: 4-spot plate.
From the text: as §1, §2

T1 sequence (P25963 with tags, fused parts or gaps limits assumed): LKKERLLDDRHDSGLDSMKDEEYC

B1: 4237375: IMAGE clone protein: βTRCP2 (protein)
chain: MEPDSVIEDKTIELMCSVPRSLWLGCANLVESMCALSCLQSMPSVRCLQISNGTSSVIVSRKRPSEGNYQKEKDLCIKYFDQWSESDQVEFVEHLISRMCHYQHGHINSYLKPMLQRDFITALPEQGLDHIAENILSYLDARSLCAAELVCKEWQRVISEGMLWKKLIERMVRTDPLWKGLSERRGWDQYLFKNRPTDGPPNSFYRSLYPKIIQDIETIESNWRCGRHNLQRIQCRSENSKGVYCLQYDDEKIISGLRDNSIKIWDKTSLECLKVLTGHTGSVLCLQYDERVIVTGSSDSTVRVWDVNTGEVLNTLIHHNEAVLHLRFSNGLMVTCSKDRSIAVWDMASATDITLRRVLVGHRAAVNVVDFDDKYIVSASGDRTIKVWSTSTCEFVRTLNGHKRGIACLQYRDRLVVSGSSDNTIRLWDIECGACLRVLEGHEELVRCIRFDNKRIVSGAYDGKIKVWDLQAALDPRAPASTLCLRTLVEHSGRVFRLQFDEFQIISSSHDDTILIWDFLNVPPSAQNETRSPSRTYTYISR
For the molecule B1, in assay [1], the “Average ECL signal, IkBa peptide [SEQ ID No. 1]” value was 21501. For the same molecule, in assay [2], the “ECL signal, spot 2 EGFR-pY1148” value is 35. The “ECL signal, spot 3 EGFR-pY1068” value in assay [3] is 24. For the same molecule, in assay [4], the “Code (pattern of positive spots)” value is given as “A, C”; the “Peptide determined from code” value is listed as “IkBa-24ppC”; the “ECL signal, spot A” value turned out to be 7791; the “ECL signal, spot B” value is on record as 105. Besides, in assay [4], the “ECL signal, spot C” value was 8615 and the “ECL signal, spot D” value came to 74.

B2: 4419252: IMAGE clone protein: PLCγ (protein)
chain: MAGAASPCANGCGPGAPSDAEVLHLCRSLEVGTVMTLFYSKKSQRPERKTFQVKLETRQITWSRGADKIEGAIDIREIKEIRPGKTSRDFDRYQEDPAFRPDQSHCFVILYGMEFRLKTLSLQATSEDEVNMWIKGLTWLMEDTLQAPTPLQIERWLRKQFYSVDRNREDRISAKDLKNMLSQVNYRVPNMRFLRERLTDLEQRSGDITYGQFAQLYRSLMYSAQKTMDLPFLEASTLRAGERPELCRVSLPEFQQFLLDYQGELWAVDRLQVQEFMLSFLRDPLREIEEPYFFLDEFVTFLFSKENSVWNSQLDAVCPDTMNNPLSHYWISSSHNTYLTGDQFSSESSLEAYARCLRMGCRCIELDCWDGPDGMPVIYHGHTLTTKIKFSDVLHTIKEHAFVASEYPVILSIEDHCSIAQQRNMAQYFKKVLGDTLLTKPVEISADGLPSPNQLKRKILIKHKKLAEGSAYEEVPTSMMYSENDISNSIKNGILYLEDPVNHEWYPHYFVLTSSKIYYSEETSSDQGNEDEEEPKEVSSSTELHSNEKWFHGKLGAGRDGRHIAERLLTEYCIETGAPDGSFLVRESETFVGDYTLSFWRNGKVQHCRIHSRQDAGTPKFFLTDNLVFDSLYDLITHYQQVPLRCNEFEMRLSEPVPQTNAHESKEWYHASLTRAQAEHMLMRVPRDGAFLVRKRNEPNSYAISFRAEGKIKHCRVQQEGQTVMLGNSEFDSLVDLISYYEKHPLYRKMKLRYPINEEALEKIGTAEPDYGALYEGRNPGFYVEANPMPTFKCAVKALFDYKAQREDELTFIKSAIIQNVEKQEGGWWRGDYGGKKQLWFPSNYVEEMVNPVALEPEREHLDENSPLGDLLRGVLDVPACQIAIRPEGKNNRLFVFSISMASVAHWSLDVAADSQEELQDWVKKIREVAQTADARLTEGKIMERRKKIALELSELVVYCRPVPFDEEKIGTERACYRDMSSFPETKAEKYVNKAKGKKFLQYNRLQLSRIYPKGQRLDSSNYDPLPMWICGSQLVALNFQTPDKPMQMNQALFMTGRHCGYVLQPSTMRDEAFDPFDKSSLRGLEPCAISIEVLGARHLPKNGRGIVCPFVEIEVAGAEYDSTKQKTEFVVDNGLNPVWPAKPFHFQISNPEFAFLRFVVYEEDMFSDQNFLAQATFPVKGLKTGYRAVPLKNNYSEDLELASLLIKIDIFPAKENGDLSPFSGTSLRERGSDASGQLFHGRAREGSFESRYQQPFEDFRISQEHLADHFDSRERRAPRRTRVNGDNRL
For B2, the “ECL signal, spot 2 EGFR-pY1148” value in assay [2] is 110. Also, the “ECL signal, spot 4 EGFR-pY992” value in assay [5] is given as 1404. Besides, the “ECL signal, spot 3 EGFR-pY1068” value in assay [3] came to 1485. In addition, in assay [4], the “Code (pattern of positive spots)” value is “B, C, D”; the “Peptide determined from code” value is recorded as “EGFR-pTyr992 & EGFR-pTyr1068”; the “ECL signal, spot A” value amounted to 239; the “ECL signal, spot B” value was 2783. Moreover, in assay [4], the “ECL signal, spot C” value is on record as 1550 and the “ECL signal, spot D” value is recorded as 3388.

These data come from patent US7063946B2, “Methods, reagents, kits and apparatus for protein function analysis” (Meso Scale Technologies, LLC., priority 2001, dated 2006).
